The source of these data is US20190144556A1 (published 2019).

Assay [1] concerns the target T1, peptide fragment defined by residues 130-149 of SEQ ID NO: 7 within human TNFR2 (KQEGCRLCAPLRKCRPGFGV) (human).
T1 peptide: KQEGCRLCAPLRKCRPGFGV
Briefly: peptide binding; assay not given.

Another assay addresses T2, recombinant human TNFR2 (human, UniProt P20333 23-257, limits assumed).
T2 construct: also called tumor necrosis factor receptor 2; full-length target protein
T2 sequence: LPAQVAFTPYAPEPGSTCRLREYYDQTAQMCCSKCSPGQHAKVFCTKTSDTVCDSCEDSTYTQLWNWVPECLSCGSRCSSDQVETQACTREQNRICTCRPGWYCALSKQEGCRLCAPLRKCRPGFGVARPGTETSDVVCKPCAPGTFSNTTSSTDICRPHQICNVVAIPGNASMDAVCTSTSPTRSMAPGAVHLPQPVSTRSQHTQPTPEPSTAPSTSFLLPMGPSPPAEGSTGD
Briefly: SPR (BIACORE 3000), biotinylated antibody captured on streptavidin, recombinant human TNFR2 injected. The protocol: The affinities of antagonistic TNFR2 antibodies for recombinant human TNFR2 were measured using BIACORE™ Analysis Services (Precision Antibody). Briefly, the antibody was biotinylated at a 5:1 stoichiometric ratio using biotinyl-LC-LC-[…] (Thermo-Fisher) in PBS. Excess biotinylation reagent was removed by centrifugation chromatography and the biotinylated antibody was captured on 3000 RU of streptavidin surface to a level of 100 RU. […] Analysis of the kinetics of antigen binding was performed at a flow of 60 μL/min with 2 min injections. Antibodies were injected at a concentration of 1 mg/ml to the final capture of 100 RU. The instrument used was BIACORE™ 3000 with the BioCap chip (GE Healthcare). Double reference method was used for analysis. Reference channel contained the identical level of streptavidin.

Assay [2] concerns the target T3, linear peptide containing amino acids 112-139 of SEQ ID NO: 7 within human TNFR2 (human).
T3 construct: Linear peptide purchased from GenScript and coated on the plate
T3 peptide: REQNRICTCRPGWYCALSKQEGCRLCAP
Briefly: ELISA, linear peptide coated at 1 µg/well, antibody 0.1 µg/well. How it is done:
(§1) ELISA was also used to determine linear epitopes present on the extracellular surface of TNFR2. Linear peptides corresponding to various regions within the TNFR2 primary sequence were purchased from GenScript (Piscataway, N.J.), diluted in coating buffer and placed on Immulon 4HBX Flat Bottom Microtiter Plates (Thermo Scientific) at a concentration of 1 μg/well. Primary TNFR2 antagonistic antibodies (0.1 μg/well) were incubated with substrates. Secondary antibodies against rodent IgG were used to detect the primary antibodies. Absorbance was measured using the SPECTRAMAX® 190 Absorbance Plate Reader and analyzed with SoftMax Pro 6.3 (Molecular Devices).

The target of assay [3] is T4, linear peptide containing amino acids 128-155 of SEQ ID NO: 7 within human TNFR2 (human).
T4 construct: Linear peptide purchased from GenScript and coated on the plate
T4 peptide: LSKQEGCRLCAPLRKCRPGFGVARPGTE
Described as above. How it is done: as §1

B1: antagonistic TNFR2 antibody TNFRAB1 (antibody, V domains shown)
VH: EVQLQESGGGLVKPGGSLKLSCAASGFTFSSYVMSWVRQTPEKRLEWVATISSGGSYTYYPDSVKGRFTISRDNAKNTLYLQMSSLRSEDTAMYYCARQRVDGYSSYWYFDVWGAGTAVTVSS
VL: DIVLTQSPAIMSASPGEKVTITCSASSSVYYMYWFQQKPGTSPKLWIYSTSNLASGVPVRFSGSGSGTSYSLTISRMEAEDAATYYCQQRRNYPYTFGGGTKLEIKR
notes: Murine monoclonal antibody, full-length IgG; For SPR the antibody was biotinylated and captured on streptavidin; also called TNFR2 antagonist 1
Consider B1, for which, in assay [1], the “fold greater affinity than for the peptide fragment defined by residues 48-67 of SEQ ID NO: 7 (…, SEQ ID NO: 18)” value was 40 fold. In the assay with recombinant human TNFR2, the Kd is ~0.0444 nM, the koff was found to be 0.000221 s⁻¹ and the kon turned out to be 4.98e+06 M⁻¹ s⁻¹. In addition, the binding result in assay [2] is “binds”. Moreover, in assay [3], the binding result is listed as “binds”.
